Measured values reported in paper doi:10.1101/2023.02.23.529735 (bioRxiv, 2023).

B1: H-NS64-VC (H-NS amino acids 1-64 fused at the C-terminus to the mVenus-mCherry VC domain) (domain or fragment, E. coli, UniProt P0ACF8 1-64, looked up)
chain: MVSEALKILNNIRTLRAQARECTLETLEEMLEKLEVVVNERREEESAAAAEVEERTRKLQQYREM
B2: H-NS86-VC (H-NS amino acids 1-86 fused at the C-terminus to the mVenus-mCherry VC domain) (domain or fragment, E. coli, UniProt P0ACF8 1-86, looked up)
chain: MVSEALKILNNIRTLRAQARECTLETLEEMLEKLEVVVNERREEESAAAAEVEERTRKLQQYREMLIADGIDPNELLNSLAAVKSGT
B3: H-NS-VC (Histone-like Nucleoid Structuring protein H-NS fused at its C-terminus to the mVenus-mCherry VC domain) (natural protein, E. coli, UniProt P0ACF8 1-137, looked up)
chain: MGSEALKILNNIRTLRAQARECTLETLEEMLEKLEVVVNERREEESAAAAEVEERTRKLQQYREMLIADGIDPNELLNSLAAVKSGTKAKRAQRPAKYSYVDENGETKTWTGQGRTPAVIKKAMDEQGKSLDDFLIKQ

How the values were obtained:
FRET or BRET [1] = target: the molecule itself; assay: FRET or BRET
FRET or BRET [2] = target: the molecule itself; assay: FRET or BRET; remark: listed apart in the source

Protein | FRET/Donor ratio, exponentially growing cells (FRET or BRET [1]) | FRET ratio (acceptor/donor) in foci, no additive (FRET or BRET [2]) | FRET ratio (acceptor/donor) in the solution outside the foci, no additive (FRET or BRET [2]) | FRET/Donor ratio, after a 6 min heat shock at 42 °C (FRET or BRET [1]) | FRET/Donor ratio, spheroplasts returned from 880 mOsm to 220 mOsm (FRET or BRET [1])
B1 | 0.126 |  |  |  | 
B2 | 0.132 | 0.073 | 0.068 |  | 
B3 | 0.105 | 0.07 | 0.082 | 0.162 | 0.181
